Data published in paper PMC10614612, “Identification of a carbonic anhydrase–Rubisco complex within the alpha-carboxysome” (Proceedings of the National Academy of Sciences of the …, 2023).
Residue numbers refer to the chain shown, from its start. In names and notes the source's numbering stands.

T1: CbbS, Rubisco small subunit (as in Rubisco-strep) (H. neapolitanus, UniProt P45686 1-110)
T1 construct: Rubisco small subunit CbbS, H. neapolitanus; residues M4-N110 modelled; Subunit of m2, written on its own for the contacts in the cryo-EM structure; source: E. coli, coexpressed with GroEL/ES, purified as Rubisco-strep
T1 sequence: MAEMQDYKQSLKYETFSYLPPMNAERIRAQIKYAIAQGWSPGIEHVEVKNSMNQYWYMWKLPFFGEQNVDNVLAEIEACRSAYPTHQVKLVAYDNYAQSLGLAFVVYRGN

T2: NTD_(1-53)-sfGFP R23A (H. neapolitanus, UniProt O85042 1-53, R23A)
T2 construct: first 53 residues of CsoSCA, H. neapolitanus, with R23A; source: E. coli, purified (His-tag purification); not shown: sfGFP, C-terminal, kept; His tag, C-terminal, kept
T2 sequence (looked up): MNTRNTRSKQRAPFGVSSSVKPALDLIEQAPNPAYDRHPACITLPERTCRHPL

T3: NTD_(1-53)-sfGFP P22A (H. neapolitanus, UniProt O85042 1-53, P22A)
T3 construct: first 53 residues of CsoSCA, H. neapolitanus, with P22A; source: E. coli, purified (His-tag purification); not shown: sfGFP, C-terminal, kept; His tag, C-terminal, kept
T3 sequence (looked up): T2 sequence (looked up) with P22A, A23R

B1: CsoSCA-MBP (enzyme, H. neapolitanus, UniProt O85042 1-514, looked up)
chain: MNTRNTRSKQRAPFGVSSSVKPRLDLIEQAPNPAYDRHPACITLPERTCRHPLTDLEANEQLGRCEDSVKNRFDRVIPFLQVVAGIPLGLDYVTRVQELAQSSLGHTLPEELLKDNWISGHNLKGIFGYATAKALTAATEQFSRKIMSEKDDSASAIGFFLDCGFHAVDISPCADGRLKGLLPYILRLPLTAFTYRKAYAGSMFDIEDDLAQWEKNELRRYREGVPNTADQPTRYLKIAVYHFSTSDPTHSGCAAHGSNDRAALEAALTQLMKFREAVENAHCCGASIDILLIGVDTDTDAIRVHIPDSKGFLNPYRYVDNTVTYAQTLHLAPDEARVIIHEAILNANRSDGWAKGNGVASEGMRRFIGQLLINNLSQIDYVVNRHGGRYPPNDIGHAERYISVGDGFDEVQIRNLAYYAHLDTVEENAIDVDVGIKIFTKLNLSRGLPIPIAIHYRYDPNVPGSRERTVVKARRIYNAIKERFSSLDEQNLLQFRLSVQAQDIGSPIEEVASA
notes: CsoSCA, beta-carbonic anhydrase of the alpha-carboxysome, H. neapolitanus; also called CsoSCA-MBP-his; C-terminal MBP tagged CsoSCA; source: E. coli, purified (His-tag purification, size exclusion chromatography); not shown: MBP, C-terminal, kept
B2: NTD_(1-50) peptide (CsoSCA residue 1-50) (peptide, UniProt O85042 1-50, looked up)
peptide: MNTRNTRSKQRAPFGVSSSVKPRLDLIEQAPNPAYDRHPACITLPERTCR
notes: first 50 residues of CsoSCA, H. neapolitanus; also called NTD peptide; N50 peptide
B3: Rubisco-strep (H. neapolitanus CbbL8S8) (complex)
chain 1: MAVKKYSAGVKEYRQTYWMPEYTPLDSDILACFKITPQPGVDREEAAAAVAAESSTGTWTTVWTDLLTDMDYYKGRAYRIEDVPGDDAAFYAFIAYPIDLFEEGSVVNVFTSLVGNVFGFKAVRGLRLEDVRFPLAYVKTCGGPPHGIQVERDKMNKYGRPLLGCTIKPKLGLSAKNYGRAVYECLRGGLDFTKDDENINSQPFMRWRDRFLFVQDATETAEAQTGERKGHYLNVTAPTPEEMYKRAEFAKEIGAPIIMHDYITGGFTANTGLAKWCQDNGVLLHIHRAMHAVIDRNPNHGIHFRVLTKILRLSGGDHLHTGTVVGKLEGDRASTLGWIDLLRESFIPEDRSRGIFFDQDWGSMPGVFAVASGGIHVWHMPALVNIFGDDSVLQFGGGTLGHPWGNAAGAAANRVALEACVEARNQGRDIEKEGKEILTAAAQHSPELKIAMETWKEIKFEFDTVDKLDTQNR
chain 2: T1 sequence
notes: Rubisco large subunit CbbL, H. neapolitanus, alpha-carboxysomal Form IA; residues V3-E457 modelled in the cryo-EM maps; Rubisco small subunit CbbS, H. neapolitanus; residues M4-N110 modelled in the cryo-EM maps; Printed both as 'strep-Rubisco' and 'Rubisco-strep'; plasmid in Dataset S4; also called strep-Rubisco; WT; source: E. coli, coexpressed with GroEL/ES, purified (Strep-tag purification); …
B4: CbbL, Rubisco large subunit (as in Rubisco-strep) (natural protein, H. neapolitanus)
chain: B3 chain 1
notes: Rubisco large subunit CbbL, H. neapolitanus; residues V3-E457 modelled; Subunit of m2, written on its own for the contacts in the cryo-EM structure; also called CbbLA; CbbLB; source: E. coli, coexpressed with GroEL/ES, purified as Rubisco-strep
B5: NTD_(1-53)-sfGFP (domain or fragment, H. neapolitanus, UniProt O85042 1-53, looked up)
chain: T2 sequence (looked up) with A23R
notes: first 53 residues of CsoSCA (unstructured N-terminal peptide), H. neapolitanus; Fused to monomeric superfolder GFP; Linker, if any, is in Dataset S4; also called NTD_(1-53)-sfGFP-His; source: E. coli, purified (His-tag purification); not shown: sfGFP, C-terminal, kept; His tag, C-terminal, kept
B6: Rubisco Y72A (complex, H. neapolitanus)
chain 1: B3 chain 1 with Y72A
chain 2: T1 sequence
notes: Rubisco large subunit CbbL, H. neapolitanus, with Y72A (the text places Y72 on CbbL); Rubisco small subunit CbbS, H. neapolitanus; Plasmid in Dataset S4; source: E. coli, coexpressed with GroEL/ES, purified (Strep-tag purification); copies: 8 + 8
B7: Rubisco D99A (complex, H. neapolitanus)
chain 1: B3 chain 1 with D99A
chain 2: T1 sequence
notes: Rubisco large subunit CbbL, H. neapolitanus, with D99A (the text places D99 on CbbL); Rubisco small subunit CbbS, H. neapolitanus; Plasmid in Dataset S4; source: E. coli, coexpressed with GroEL/ES, purified (Strep-tag purification); copies: 8 + 8
B8: NTD1-53-sfGFP-His, first 53 residues of CsoSCA fused to superfolder GFP (domain or fragment, H. neapolitanus, UniProt O85042 1-53, looked up)
chain: T2 sequence (looked up) with A23R
notes: first 53 residues of CsoSCA, Halothiobacillus neapolitanus; source: E. coli (see Dataset S4), purified (His-tag purification)

What was measured:
[1] = molecular target: T4, biotinylated Rubisco (H. neapolitanus CbbL8S8) (H. neapolitanus, UniProt O85040 1-473; P45686 1-110, biotin (sites and subunit not stated)); test: BLI; biotinylated Rubisco immobilised on streptavidin biosensors; 62.5–2.0 nM CsoSCA-MBP as prey; 25 mM Tris pH 7.5, 125 mM NaCl, 0.01% Triton X100; 1:1 binding model; triplicate; conditions: both partners purified
T4 construct: Rubisco large subunit CbbL, H. neapolitanus, alpha-carboxysomal Form IA; Rubisco small subunit CbbS, H. neapolitanus; Held on streptavidin sensors; how it was biotinylated is in the SI Appendix methods; source: E. coli, coexpressed with GroEL/ES, purified (Strep-tag purification), biotinylated; copies: 8 + 8

[2] = molecular target: T1, CbbS, Rubisco small subunit (as in …); test: cryo-EM structure; 0.5 μM Rubisco-strep with 0.5 mM NTD_(1-50) peptide; 25 mM Tris pH 7.5, 80 mM NaCl, 2% glycerol; two reconstructions (State-1, State-2), D4 symmetry; conditions: both partners purified
[3] = molecular target: B3; test: as above; conditions: both partners purified
NTD_(1-53)-sfGFP = molecular target: B5; test: BLI; 5 μg/mL NTD_(1-53)-sfGFP-His (or point mutant) immobilised on Ni-NTA biosensors; strep-Rubisco (WT 250–3.9 nM, or mutant) as prey; 25 mM Tris pH 7.5, 70 mM NaCl, 0.01% Triton X100; 1:2 (Bivalent Analyte) binding model; conditions: both partners purified
NTD_(1-53)-sfGFP R23A = molecular target: T2, NTD_(1-53)-sfGFP R23A; test: as above; conditions: both partners purified
NTD_(1-53)-sfGFP P22A = molecular target: T3, NTD_(1-53)-sfGFP P22A; test: as above; conditions: both partners purified
[4] = molecular target: the molecule itself; test: cryo-EM structure; 0.5 μM Rubisco-strep with 0.5 mM NTD_(1-50) peptide; 25 mM Tris pH 7.5, 80 mM NaCl, 2% glycerol; two reconstructions (State-1, State-2), D4 symmetry
[5] = molecular target: B3; test: SEC; NTD_(1-53)-sfGFP and Rubisco-strep mixed 32:1 (NTD_(1-53)-sfGFP:CbbL8S8); Superose 6 Increase 3.2/300; 20 mM Tris pH 7.5, 150 mM NaCl, 4 °C; A280 and A485; conditions: both partners purified
[6] = molecular target: T5, Rubisco-strep (CbbL8S8) from Halothiobacillus neapolitanus (H. neapolitanus, UniProt O85040 1-473; P45686 1-110); test: SEC; Superose 6 Increase 3.2/300, 20 mM Tris pH 7.5, 150 mM NaCl, 4 °C; NTD1-53-sfGFP:CbbL8S8 mixed 32:1; A280 and A485 monitored; conditions: both partners purified
T5 construct: Rubisco large subunit CbbL, Halothiobacillus neapolitanus; Rubisco small subunit CbbS, Halothiobacillus neapolitanus; also called strep-Rubisco; source: E. coli (BL21-A1 or BW25113, see Dataset S4), co-expressed with GroEL/ES, purified (StrepTrap); copies: 8 + 8

| KD2 (second set of the 1:2 fit) (NTD_(1-53)-sfGFP) [nM] | KD (first set of the 1:2 fit) (NTD_(1-53)-sfGFP) [nM] | koff2 (second set of the 1:2 fit) (NTD_(1-53)-sfGFP) [s⁻¹] | koff (first set of the 1:2 fit) (NTD_(1-53)-sfGFP) [s⁻¹] | kon2 (second set of the 1:2 fit) (NTD_(1-53)-sfGFP) [M⁻¹ s⁻¹] | kon (first set of the 1:2 fit) (NTD_(1-53)-sfGFP) [M⁻¹ s⁻¹] | Binder | further results |
| --- | --- | --- | --- | --- | --- | --- | --- |
|  |  |  |  |  |  | B1 | Kd [1]: 1.2 ± 0.1 nM |
|  |  |  |  |  |  | B2 | binding result [2]: binds; stoichiometry N [3]: 8 |
| 80 ± 1 | 33 ± 0.4 | 0.11 | 0.0069 | 1.4e+06 | 210000 | B3 | KD2 (second set of the 1:2 fit) (NTD_(1-53)-sfGFP R23A): 130 ± 2 nM; KD (first set of the 1:2 fit) (NTD_(1-53)-sfGFP R23A): 17 ± 0.2 nM; koff2 (second set of the 1:2 fit) (NTD_(1-53)-sfGFP R23A): 0.061 s⁻¹; koff (first set of the 1:2 fit) (NTD_(1-53)-sfGFP R23A): 0.0033 s⁻¹; kon2 (second set of the 1:2 fit) (NTD_(1-53)-sfGFP R23A): 460000 M⁻¹ s⁻¹; kon (first set of the 1:2 fit) (NTD_(1-53)-sfGFP R23A): 190000 M⁻¹ s⁻¹; KD2 (second set of the 1:2 fit) (NTD_(1-53)-sfGFP P22A): 6.5 ± 0.4 µM; KD (first set of the 1:2 fit) (NTD_(1-53)-sfGFP P22A): 18000 nM; koff2 (second set of the 1:2 fit) (NTD_(1-53)-sfGFP P22A): 0.44 s⁻¹; koff (first set of the 1:2 fit) (NTD_(1-53)-sfGFP P22A): 0.044 s⁻¹; kon2 (second set of the 1:2 fit) (NTD_(1-53)-sfGFP P22A): 68000 M⁻¹ s⁻¹; kon (first set of the 1:2 fit) (NTD_(1-53)-sfGFP P22A): 2400 M⁻¹ s⁻¹ |
|  |  |  |  |  |  | B4 | binding result [4]: binds |
|  |  |  |  |  |  | B5 | binding result [5]: binds |
| 820 ± 11 | 320 ± 6 | 0.15 | 0.0089 | 180000 | 28000 | B6 |  |
| 1100 ± 14 | 400 ± 10 | 0.15 | 0.0059 | 130000 | 15000 | B7 |  |
|  |  |  |  |  |  | B8 | binding result [6]: binds |
